Assay results taken from patent US20220242962A1.

What was measured:
[1] = biological target: Full-length Human OX40 (human) (UniProt P43489); assay: flow cytometry (GUAVA Easycyte), antibody at 1:30 dilution, CHO clone OXF001a_6B1 expressing human OX40
[2] = biological target: Full-length Human OX40 (human) (UniProt P43489); assay: flow cytometry (GUAVA Easycyte), antibody at 1:30 dilution, CHO clone OXF001a_9G10 expressing human OX40
[3] = biological target: Full-length Cyno OX40 (cynomolgus monkey); assay: flow cytometry (GUAVA Easycyte), antibody at 1:30 dilution, CHO clone OXF004a_11H7 expressing cynomolgus OX40
Full-length Cyno OX40 (cynomolgus monkey), sequence (P43489 other isoform, or with tags, fused parts or gaps): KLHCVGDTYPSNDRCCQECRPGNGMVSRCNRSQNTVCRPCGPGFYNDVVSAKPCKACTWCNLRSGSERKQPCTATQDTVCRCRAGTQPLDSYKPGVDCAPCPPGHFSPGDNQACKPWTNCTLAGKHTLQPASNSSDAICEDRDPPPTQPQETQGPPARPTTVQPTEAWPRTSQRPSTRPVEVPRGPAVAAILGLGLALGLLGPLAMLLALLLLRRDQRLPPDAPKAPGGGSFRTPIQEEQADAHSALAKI

Full-length Human OX40 (human), sequence (P43489 29-277): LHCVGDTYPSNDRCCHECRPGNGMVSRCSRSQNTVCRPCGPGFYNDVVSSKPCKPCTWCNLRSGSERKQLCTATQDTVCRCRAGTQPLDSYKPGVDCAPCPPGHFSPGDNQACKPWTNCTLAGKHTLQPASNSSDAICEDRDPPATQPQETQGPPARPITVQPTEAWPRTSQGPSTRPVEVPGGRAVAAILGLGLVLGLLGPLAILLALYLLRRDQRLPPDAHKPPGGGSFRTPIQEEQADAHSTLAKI

MFI [1]: 211
MFI [2]: 230
MFI [3]: 456
Substance: antibody to human OX40 (clone L106, BD Biosciences)
